Reference: the supplement of paper PMC9876800

System: peptide library, one residue held at a place counted from the S/T acceptor
Experiment: relative phosphorylation of the sub-library (ratio to the mean residue at this position); human; higher = residue favoured
Outline: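 Spots on streptavidin membranes were phosphorimaged and quantified by densitometry to measure phosphorylation of biotinylated degenerate peptide sub-libraries by purified recombinant kinases, human or orthologue constructs. The reactions ran in 384-well plates for 90 min under kinase-specific conditions, with peptides at 50 μM and 50 μM ATP spiked with γ-32P-ATP. Relative sub-library phosphorylation is the ratio to the mean residue at that position.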

Sequence of PAK3, construct: Full length (O75914 whole entry, looked up): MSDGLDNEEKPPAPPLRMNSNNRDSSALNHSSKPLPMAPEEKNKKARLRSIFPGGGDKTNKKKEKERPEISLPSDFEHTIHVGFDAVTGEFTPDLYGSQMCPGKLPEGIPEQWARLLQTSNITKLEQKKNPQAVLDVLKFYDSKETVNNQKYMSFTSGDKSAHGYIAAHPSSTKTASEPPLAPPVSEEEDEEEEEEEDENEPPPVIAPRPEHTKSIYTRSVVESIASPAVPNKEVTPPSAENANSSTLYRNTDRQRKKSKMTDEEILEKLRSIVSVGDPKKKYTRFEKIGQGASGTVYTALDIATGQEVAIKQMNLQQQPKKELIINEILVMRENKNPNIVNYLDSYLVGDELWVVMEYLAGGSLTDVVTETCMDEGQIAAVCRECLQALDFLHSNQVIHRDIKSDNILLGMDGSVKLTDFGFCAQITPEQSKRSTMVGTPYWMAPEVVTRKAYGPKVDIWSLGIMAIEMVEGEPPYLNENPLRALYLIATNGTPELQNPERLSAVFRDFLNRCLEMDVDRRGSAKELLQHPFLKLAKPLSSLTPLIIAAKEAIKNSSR
Sequence of MELK, construct: aa1-340 (Q14680 1-340, looked up): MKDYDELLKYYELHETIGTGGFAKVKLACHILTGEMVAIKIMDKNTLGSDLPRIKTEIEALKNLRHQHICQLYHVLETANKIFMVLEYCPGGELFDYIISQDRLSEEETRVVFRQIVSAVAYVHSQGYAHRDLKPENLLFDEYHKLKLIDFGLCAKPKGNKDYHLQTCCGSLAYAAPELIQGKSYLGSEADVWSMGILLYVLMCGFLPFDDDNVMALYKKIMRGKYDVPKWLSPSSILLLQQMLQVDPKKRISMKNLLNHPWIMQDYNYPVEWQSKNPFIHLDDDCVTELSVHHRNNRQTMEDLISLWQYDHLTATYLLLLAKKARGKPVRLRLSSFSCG

MELK, construct: aa1-340 (from UniProt Q14680)
relative phosphorylation
Details | at +1 | at +2 | at +3 | at +4 | at -1 | at -2 | at -3 | at -4 | at -5
A fixed | 1.02 | 0.961 | 0.744 | 0.748 | 0.777 | 1.24 | 0.757 | 1.12 | 0.927
D fixed | 0.349 | 0.324 | 0.902 | 0.634 | 0.495 | 0.251 | 0.225 | 0.47 | 0.446
E fixed | 0.447 | 0.274 | 0.436 | 0.558 | 0.469 | 0.305 | 0.256 | 0.658 | 0.392
F fixed | 2.31 | 0.923 | 1.21 | 0.987 | 0.78 | 1.07 | 0.478 | 0.674 | 1.18
G fixed | 0.949 | 0.79 | 0.855 | 1.02 | 0.711 | 0.78 | 0.707 | 1.24 | 0.884
H fixed | 0.994 | 1.02 | 1.47 | 1.04 | 1.25 | 1.33 | 1.18 | 1.11 | 0.871
I fixed | 0.511 | 1.64 | 0.77 | 1.26 | 0.783 | 0.667 | 0.347 | 0.669 | 1.13
K fixed | 1.38 | 0.858 | 0.938 | 1.03 | 1.89 | 1.63 | 2.74 | 2.08 | 1.49
L fixed | 0.752 | 1.79 | 1.02 | 1.84 | 1.07 | 0.681 | 0.454 | 0.761 | 1.76
M fixed | 1.14 | 1.68 | 0.986 | 1.1 | 1.1 | 0.951 | 0.484 | 0.903 | 1.22
N fixed | 0.837 | 0.873 | 1.48 | 0.988 | 1.19 | 1.09 | 0.742 | 1.02 | 0.711
P fixed | 0.171 | 0.598 | 0.553 | 1.23 | 1.07 | 0.419 | 0.751 | 1.01 | 1.03
Q fixed | 1.54 | 0.723 | 1.05 | 0.952 | 1.12 | 1.42 | 0.784 | 0.844 | 0.902
R fixed | 1.72 | 1.28 | 1.12 | 1.03 | 1.71 | 1.79 | 5.37 | 1.81 | 1.67
V fixed | 0.705 | 1.54 | 0.79 | 1.05 | 0.885 | 0.893 | 0.394 | 0.701 | 0.814
W fixed | 0.959 | 0.808 | 1.69 | 0.848 | 0.601 | 1.15 | 0.676 | 1.1 | 0.766
Y fixed | 1.22 | 0.935 | 1 | 0.673 | 1.09 | 1.33 | 0.653 | 0.831 | 0.806
pThr fixed | 0.647 | 0.364 | 0.33 | 0.662 | 0.311 | 0.354 | 0.33 | 0.438 | 0.508
pTyr fixed | 0.551 | 0.407 | 0.409 | 0.425 | 0.709 | 0.295 | 0.332 | 0.382 | 0.517

PAK3, construct: Full length (from UniProt O75914)
relative phosphorylation
Details | at +1 | at +2 | at +3 | at +4 | at -1 | at -2 | at -3 | at -4 | at -5
A fixed | 0.949 | 1.12 | 1.05 | 1.07 | 0.974 | 0.862 | 0.985 | 1.32 | 1.33
D fixed | 0.291 | 0.36 | 0.768 | 0.986 | 0.485 | 0.178 | 0.437 | 0.64 | 0.604
E fixed | 0.356 | 0.297 | 0.701 | 0.89 | 0.463 | 0.19 | 0.415 | 0.665 | 0.547
F fixed | 1.14 | 1.37 | 1.37 | 0.847 | 0.752 | 0.471 | 0.59 | 0.732 | 0.876
G fixed | 0.706 | 0.615 | 0.97 | 1.13 | 0.716 | 0.449 | 0.825 | 1.32 | 1.24
H fixed | 1.09 | 1.57 | 1.2 | 1.14 | 1.31 | 1.61 | 1.32 | 1.29 | 1.1
I fixed | 1.27 | 1.19 | 0.983 | 0.777 | 0.701 | 0.624 | 0.494 | 0.629 | 0.643
K fixed | 1.07 | 0.645 | 0.764 | 1.03 | 1.61 | 1.3 | 2.22 | 1.28 | 1.81
L fixed | 1.1 | 1.17 | 1.12 | 0.905 | 1.11 | 0.439 | 0.558 | 0.689 | 0.636
M fixed | 1.54 | 1.04 | 1.02 | 0.933 | 1.12 | 0.48 | 0.693 | 0.873 | 0.681
N fixed | 0.749 | 0.728 | 0.847 | 1.03 | 1.04 | 0.584 | 0.825 | 0.966 | 0.863
P fixed | 0.21 | 0.655 | 0.976 | 1.45 | 0.611 | 0.817 | 0.823 | 1.14 | 1.09
Q fixed | 1.09 | 0.729 | 0.886 | 1.17 | 1 | 0.715 | 0.878 | 1.05 | 0.93
R fixed | 1.35 | 0.853 | 0.819 | 0.933 | 2.06 | 6.37 | 3.73 | 1.86 | 2.24
V fixed | 1.12 | 1.11 | 0.955 | 0.908 | 0.914 | 0.748 | 0.512 | 0.756 | 0.757
W fixed | 1.66 | 1.11 | 1.26 | 1.04 | 0.976 | 0.423 | 0.907 | 0.901 | 0.812
Y fixed | 1.3 | 2.44 | 1.3 | 0.753 | 1.16 | 0.747 | 0.785 | 0.89 | 0.852
pThr fixed | 0.479 | 0.471 | 0.632 | 0.99 | 0.367 | 0.411 | 0.546 | 0.754 | 0.574
pTyr fixed | 0.635 | 2.43 | 0.9 | 0.76 | 0.605 | 0.323 | 0.743 | 0.654 | 0.619
